From patent US20100298227A1 (published 2010)

Tests used:
[1] = biological target: Detergent-soluble HLA-DR1 purified from LG-2 cells (DRB1*0101) (human)
[2] = biological target: Detergent-soluble HLA-DR2 purified from MGAR cells (DRB1*1501) (human)
[3] = biological target: Detergent-soluble HLA-DR4 purified from Priess cells (DRB1*0401) (human)
[4] = biological target: Detergent-soluble HLA-DR1 purified from LG-2 cells (DRB1*0101) (human); test: competition with biotinylated TAL for purified HLA-DR; competitor TAL
[5] = biological target: Detergent-soluble HLA-DR2 purified from MGAR cells (DRB1*1501) (human); test: as above
[6] = biological target: Detergent-soluble HLA-DR4 purified from Priess cells (DRB1*0401) (human); test: as above

Molecule	IC50 [1]	Kd [1]	IC50 [2]	Kd [2]	IC50 [3]	Kd [3]	fold amount of superantigen needed to inhibit TAL binding [4]	fold amount of superantigen needed to inhibit TAL binding [5]	fold amount of superantigen needed to inhibit TAL binding [6]
Copolymer 1	8.8 µM	0.074 µM	10.1 µM	0.082 µM	10.8 µM	0.015 µM			
GAL terpolymer (SD-1689), poly[L-Glu 0.153, L-Ala 0.479, L-Lys 0.365]	< 1000 µM		< 1000 µM	0.017 µM	< 1000 µM	0.003 µM			
GTL terpolymer (SD-1697), poly[L-Tyr 0.162, L-Glu 0.259, L-Lys 0.579]	43 µM	0.004 µM	25.4 µM		43 µM	0.008 µM			
TAL terpolymer (SD-1691), poly[L-Tyr 0.102, L-Ala 0.542, L-Lys 0.353]	3.3 µM		2.7 µM	0.017 µM					
TGA terpolymer (SD-1690), poly[L-Tyr 0.136, L-Glu 0.21, L-Ala 0.648]	1.3 µM	0.01 µM	9.5 µM	0.008 µM	1 µM	0.008 µM			
bacterial superantigen SEA (other) SEKSEEINEKDLRKKSELQGTALGNLKQIYYYNEKAKTENKESHDQFLQHTILFKGFFTDHSWYNDLLVDFDSKDIVDKYKGKKVDLYGAYYGYQCAGGTPNKTACMYGGVTLHDNNRLTEEKKVPINLWLDGKQNTVPLETVKTNKKNVTVQELDLQARRYLQEKYNLYNSDVFDGKVQRGLIVFHTSTEPSVNYDLFGAQGQYSNTLLRIYRDNKTINSENMHIDIYLYTS							50 fold	50 fold	50 fold
bacterial superantigen SEB (other) ESQPDPKPDELHKSSKFTGLMENMKVLYDDNHVSAINVKSIDQFLYFDLIYSIKDTKLGNYDNVRVEFKNKDLADKYKDKYVDVFGANYYYQCYFSKKTNDINSHQTDKRKTCMYGGVTEHNGNQLDKYRSITVRVFEDGKNLLSFDVQTNKKKVTAQELDYLTRHYLVKNKKLYEFNNSPYETGYIKFIENENSFWYDMMPAPGDKFDQSKYLMMYNDNKMVDSKDVKIEVYLTTKKK							50 fold	50 fold	50 fold
bacterial superantigen TSST-1 (other) STNDNIKDLLDWYSSGSDTFTNSEVLDNSLGSMRIKNTDGSISLIIFPSPYYSPAFTKGEKVDLNTKRTKKSQHTSEGTYIHFQISGVTNTEKLPTPIELPLKVKVHGKDSPLKYGPKFDKKQLAISTLDFEIRHQLTQIHGLYRSSDKTGGYWKITMNDGSTYQSDLSKKFEYNTEKPPINIDEIKTIEAEIN							50 fold	50 fold	50 fold
